Values quoted from earlier work, collected in publication PMC4986992.

Target: Glycophorin A (GpATM) TM (Homo sapiens) (UniProt P02724)

Kd: 1.2 pM
Substance: Glycophorin A (GpATM) TM (from UniProt P02724)
